US20090175881A1 (SCHERING, published 2009)
Substitutions are numbered along the chain they refer to. Names may count otherwise. “And” between values parts separate entries of the source, which are not always exact repeats. Identical values can stand only once.

B1: humanized 16C10 wt (antibody, human IgG1, kappa, V domains shown)
VH: QVQLQESGPGLVKPSETLSLTCTVSGFSLPSHSVSWIRQPPGKGLEWIGIIWNNGGTDYNSAFKSRVTISVDTSKNQFSLKLSSVTAADTAVYYCARNMYITDYYYENYFMDAWGQGTLVTVSS
VL: DIVMTQSPLSLPVTPGEPASISCKSSQSLLFSENQKNYLAWYLQKPGQSPQLLIYWTSTRQSGVPDRFSGSGSGTDFTLKISRVEAEDVGVYYCQQSYYTPYTFGQGTKVEIKR
notes: Humanized antibody with the parental rat CDRs; Human IgG1/kappa; also called hu 16C10 wt; hu16C10 (wt)
B2: humanized 16C10 (VH N54Q/M96A) (antibody, human IgG1, kappa, V domains shown)
VH: B1 VH with N54Q, M99A
VL: B1 VL
notes: Human IgG1/kappa; also called hu 16C10; hu16C10
B3: hu 16C10 VH N54Q/M96A/M100hF (antibody, human IgG1, kappa, V domains shown)
VH: B1 VH with N54Q, M99A, M111F
VL: B1 VL
notes: Human IgG1/kappa; also called hu 16C10 VH 54Q/M96A/M100hF; hu16C10 (N54Q/M96A/M100hF)
B4: chimeric 16C10 (antibody, human IgG1, kappa, V domains shown)
VH: QVELRESGPGLVQPSQTLSLTCTVSGFSLPSHSVSWIRQPPGKGLEWMGIIWNNGGTDYNSAFKSRLTISRDTSKSQVFLKMNSLQTEDTAMYFCARNMYITDYYYENYFMDAWGQGASVTVSS
VL: DIVMTQSPSSLAVSIGETVTLNCKSSQSLLFSENQKNYLAWYQHKSGQSPKLLVYWTSTRQSGVPDRFMGSGSGTDFTLTISSVQAEDLAIYYCQQSYYTPYTFGAGTKLELKR
notes: also called chimeric 16C10C
B5: rat 30C10 (antibody, V domains shown)
VH: EVQLVESGGGLVQPGRSQKLSCVVSGFTFNNYWMTWIRQAPGKGLEWVASVSNTGSSTYYPASVKGRFTISRDNAKSTLYLQMNSLRSEDTATYYCTREGAYYLDYWGQGVMVTVSS
VL: DIVMTQSPSSLAVSPGETVTINCKSSQSLFWSESHMNYLAWYQQKPGQSPKLLIYYASTRQSGVPDRFIGSGSGTDFTLTISGVQAEDLAVYYCHHHYDSHTFGAGTKLELKR
notes: Parental rat monoclonal antibody (hybridoma PTA-7739); also called 30C10C

Experiments:
rhIL-17A [1] = target: T1, rhIL-17A (human, UniProt Q16552 24-155); experiment: cell-based or functional assay
T1 sequence: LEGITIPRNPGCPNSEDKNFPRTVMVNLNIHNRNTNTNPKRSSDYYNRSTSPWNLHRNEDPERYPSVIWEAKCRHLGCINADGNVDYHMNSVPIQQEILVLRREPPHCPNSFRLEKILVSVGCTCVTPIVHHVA

rhIL-17A [2] = target: T1, rhIL-17A; experiment: indirect ELISA, rhIL-17A coated on plate
Description: Binding of anti-human-IL-17A monoclonal antibodies to rhIL-17A is assessed using an indirect enzyme-linked immunosorbent assay (ELISA). Briefly, a fixed concentration of rhIL-17A is bound directly to the wells of a microtiter plate. The monoclonal anti-IL-17A to be assayed is then is added to the rhIL-17A coated plate, where the antibody is captured and quantitated.
A 96-well U-bottom MaxiSorp plate is coated with 50 μl/well of rhIL-17A (0.5 μg/ml) in carbonate coating buffer (the “assay plate”). Carbonate coating buffer is 2.9 g/L NaHFCO₃, 1.6 g/L Na₂CO₃, pH 9.4. Plates are incubated covered at 4° C. overnight. Monoclonal antibodies to be screened are serially diluted in duplicate across the rows of a V-bottom plate such that the final volume is 60 μl/well (the “serial dilution plate”). The assay plate is washed three times with PBS-Tween in a plate washer (SkanWasher, Molecular Devices, Sunnyvale, Calif., USA) and blotted dry. PBS-Tween is obtained by adding 0.5 ml/L Tween 20 to 1×PBS. Fifty μl from each well of the serial dilution plate is transferred to the assay plate and incubated at 25° C. for one hour. Secondary antibodies are diluted 1/2000 in diluent (PBS-BSA-Tween, which is PBS-Tween with 1 g/L BSA). The secondary antibody for rat monoclonal antibodies is goat anti-rat IgG (H+L)—HRP (Jackson ImmunoResearch Laboratories, Inc., West Grove, Pa., USA). The secondary antibody for chimeric and humanized monoclonal antibodies is F(ab′)₂ goat anti-human IgG Fcγ—HRP (Jackson ImmunoResearch Laboratories, Inc.). The assay plate is washed as before. Diluted secondary antibodies (100 μl/well) are added to the appropriate wells in the assay plate, and the plate is incubated at 25° C. for 45 minutes. The assay plate is washed as before.

rhIL-17A [3] = target: T1, rhIL-17A; experiment: KinExA, solution equilibrium
Description: (§1) The equilibrium dissociation constants (Kd) for anti human IL-17A antibodies were determined using the KinExA 3000 instrument (Sapidyne Instruments Inc., Boise, Id., USA). KinExA uses the principle of the Kinetic Exclusion Assay method based on measuring the concentration of uncomplexed antibody in a mixture of antibody, antigen and antibody-antigen complex. […] The concentration of free antibody is measured by exposing the mixture to a solid-phase immobilized antigen for a very brief period of time. l practice, this is accomplished by flowing the solution phase antigen-antibody mixture past antigen-coated particles trapped in a flow cell. Data generated by the instrument are analyzed using custom software.
(§2) IL-17A was derived from either human (“hu”), cynomolgus monkey (“cyno”), or mouse (“mu”). IL-17A from the same species was used in both the immobilized and solution phases for each KinExA determination. Poly(methyl-methacrylate) (PMMA) particles (98 micron) were coated with human, cyno or mouse IL-17A according to Sapidyne “Protocol for coating PMMA particles with biotinylated ligands having short or nonexistent linker arms.” All experimental procedures were done according to the KinExA 3000 manual. All runs were done in duplicate.
(§3) Two-fold serial dilutions of the antigen were prepared and mixed with the antibody at constant concentration. The mixture was incubated for 2 hours at 25° C. to equilibrate.

rhIL-17A [4] = target: T1, rhIL-17A; experiment: cell-based or functional assay; remark: listed apart in the source
rhIL-17A [5] = target: T1, rhIL-17A; experiment: sandwich ELISA, IL-17A captured on rat 12E6, antibody titrated
Description: (§4) Binding of anti-human-IL-17A monoclonal antibodies to rhIL-17A is assessed using an ELISA as follows. Briefly, a capture antibody is bound to the wells of a microtiter plate, after which a fixed concentration of rhIL-17A is added. The monoclonal anti-IL-17A to be assayed is then titrated versus the bound rhIL-17A on the plate to determine the concentration of antibody needed to achieve half-maximal binding. A more detailed protocol follows.
(§5) A 96-well microtiter plate is coated with 100 μl/well of capture antibody (rat anti-hIL-17A 12E6, 0.5 μg/ml) in carbonate coating buffer pH 9.5 (the “assay plate”). Plates are incubated covered at 4° C. for 24 to 48 hours. The assay plate is washed three times in a plate washer (SkanWasher, Molecular Devices, Sunnyvale, Calif., USA) and blotted dry. The plate is then blocked with 200 μl/well of ELISA assay buffer (20 mM Tris-HCl, 0.15 M NaCl, pH7.4, 0.5% BSA, 0.05% Tween-20, SM EDTA) for one hour at 25° C. on an orbital shaker. The plate is washed, and 100 μl/well of either adenovirus-derived rhIL-17A or E. coli-derived human IL-17 (IL-17A) (R&D Systems, Minneapolis, Minn., USA) (0.1 g/ml) is added in ELISA assay buffer and incubated for 2 hours at 25° C. on an orbital shaker. […] Plates are incubated for 1.5 hours at 25° C. on an orbital shaker. Plates are washed and 100 μl/well secondary antibody (F(ab′)₂ goat anti-human kappa light chain—HRP, 1:20,000 dilution, BioSource, Carlsbad, Calif., USA) is added, except for assay blank wells. Plates are washed twice (i.e. two cycles of 3 washes per cycle) with plate rotation between cycles. TMB substrate (Kirkegaard & Perry Laboratories, Gaithersburg, Md., USA) is added at 100 μl/well and incubated 3-5 minutes on an orbital shaker. Stop solution is added (100 μl/well) and the plate is read for absorbance at 450-570 um on a plate reader (Versamax, Molecular Devices, Sunnyvale, Calif., USA).

R&D Systems human IL-17A = target: T2, R&D Systems human IL-17A (human, UniProt Q16552 20-155); experiment: as above
T2 construct: Bought from R&D Systems, made in E. coli; also called R&D IL-17A; E. coli-derived human IL-17 (IL-17A)
T2 sequence: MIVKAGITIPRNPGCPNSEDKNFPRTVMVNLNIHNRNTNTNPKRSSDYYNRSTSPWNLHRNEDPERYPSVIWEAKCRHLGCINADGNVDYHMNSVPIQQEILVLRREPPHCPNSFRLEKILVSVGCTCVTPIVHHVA
Description: as §4, §5

cynomolgus monkey IL-17A [6] = target: T3, cynomolgus monkey IL-17A (cynomolgus monkey, UniProt A0A2K5TTB0 24-155); experiment: cell-based or functional assay
T3 sequence: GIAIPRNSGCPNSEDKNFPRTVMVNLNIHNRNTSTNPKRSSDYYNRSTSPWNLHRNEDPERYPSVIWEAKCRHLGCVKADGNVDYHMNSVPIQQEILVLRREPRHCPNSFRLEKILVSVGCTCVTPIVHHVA

native human IL-17A [7] = target: T4, native human IL-17A (human, UniProt Q16552 24-155); experiment: cell-based or functional assay
T4 sequence: T3 sequence with A3T, S8P, S34N, V77I, K78N, R104P

cynomolgus monkey IL-17A [8] = target: T3, cynomolgus monkey IL-17A; experiment: KinExA, solution equilibrium
Description: as §1, §2, §3

cynomolgus monkey IL-17A [9] = target: T3, cynomolgus monkey IL-17A; experiment: cell-based or functional assay; remark: listed apart in the source
native human IL-17A [10] = target: T4, native human IL-17A; experiment: cell-based or functional assay; remark: listed apart in the source
rhIL-17A [11] = target: T1, rhIL-17A; experiment: cell-based or functional assay; remark: listed apart in the source
cynomolgus monkey IL-17A [12] = target: T3, cynomolgus monkey IL-17A; experiment: cell-based or functional assay; remark: listed apart in the source
FLAG-huIL-17A [13] = target: T5, FLAG-huIL-17A (human, UniProt Q16552 24-155); experiment: ECL (Origen), antibody titrated against biotinylated antigen; area under the curve
T5 construct: also called FLAG-huL-17A; FLAG-IL-17A
T5 sequence: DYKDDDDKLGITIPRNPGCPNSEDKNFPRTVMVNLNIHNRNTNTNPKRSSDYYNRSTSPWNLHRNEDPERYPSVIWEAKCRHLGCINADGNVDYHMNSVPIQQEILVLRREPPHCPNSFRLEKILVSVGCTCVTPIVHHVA
Excerpt: (§6) Origen electrochemiluminescence technology, developed by IGEN, Inc. (Gaithersburg, Md., USA), and was employed to measure the binding of rat anti-human IL-17A antibodies (and one chimeric antibody) to FLAG-huL-17A. […] Electrochemiluminescence technology uses a stable ruthenium metal chelate (Ori-TAG) which, in the presence of tripropylamine (TPA), generates electrochemiluminescence upon voltage application. Paramagnetic beads, microns in diameter, act as the solid phase and facilitate rapid assay kinetics. The bead/complex is channeled through a flow cell and captured at an electrode by magnetic application. Voltage is applied and resulting electrochemiluminescence is measured.
(§7) ECL assays were performed as follows. Three-fold serial dilutions of anti-human IL-17A mAbs in 50 μl of the assay buffer were made in a 96-well microtiter plate to give 1-3 μg/ml final concentration in the first well. […] Finally 50 μl of Origen Streptavidin-Dynabeads at 0.1 mg/ml was added to each well. […] GraphPad Prism software (GraphPad Software, San Diego, Calif., USA) was used to plot the data and calculate area under the curve, which is a rough measure of binding.

cynomolgus monkey IL-17A [14] = target: T3, cynomolgus monkey IL-17A; experiment: ECL (Origen); area under the curve
Excerpt: as §6, §7

FLAG-huIL-17A [15] = target: T5, FLAG-huIL-17A; experiment: KinExA, solution equilibrium
Description: as §1, §2, §3

rhIL-17A [16] = target: T1, rhIL-17A; experiment: cell-based or functional assay; remark: listed apart in the source
cynomolgus monkey IL-17A [17] = target: T3, cynomolgus monkey IL-17A; experiment: cell-based or functional assay; remark: listed apart in the source

Binder	IC50, synoviocyte IL-8 production, rhIL-17A (30 ng/ml) (rhIL-17A [1])	EC50 (rhIL-17A [2])	Kd (rhIL-17A [3])	IC50, synoviocyte IL-6 production, rhIL-17A (30 ng/ml) (rhIL-17A [4])	EC50 (rhIL-17A [5])	EC50 (R&D Systems human IL-17A)	IC50, synoviocyte IL-8 production, NHP IL-17A (30 ng/ml) (cynomolgus monkey IL-17A [6])	IC50, synoviocyte IL-8 production, Native huIL-17A (10 ng/ml) (native human IL-17A [7])	Kd (cynomolgus monkey IL-17A [8])	IC50, synoviocyte IL-6 production, NHP IL-17A (30 ng/ml) (cynomolgus monkey IL-17A [9])	IC50, synoviocyte IL-6 production, Native huIL-17A (10 ng/ml) (native human IL-17A [10])	IC50, Ba/F3 hIL-17Rc-mGCSFR proliferation assay, IL-17A at 100 pM (rhIL-17A [11])	IC50, Ba/F3 hIL-17Rc-mGCSFR proliferation assay, IL-17A at 276 pM (rhIL-17A [11])	IC50, Ba/F3 hIL-17Rc-mGCSFR proliferation assay, IL-17A at 100 pM (cynomolgus monkey IL-17A [12])	Area Under Peak (FLAG-huIL-17A [13])	Area Under Peak (cynomolgus monkey IL-17A [14])	Kd (FLAG-huIL-17A [15])	IC50, inhibition of IL-6 production in NHDF cells, rhIL-17A (rhIL-17A [16])	IC50, inhibition of IL-6 production in NHDF cells, cyno IL-17A (cynomolgus monkey IL-17A [17])
B1	0.042 µg/mL	0.212 nM	0.0088 nM	0.08 µg/mL	0.066 nM	0.13 nM	–	–	–	–	–	–	–	–	–	–	–	–	–
B2	0.038 µg/mL	–	0.0039 nM	0.07 µg/mL	0.092 nM	0.136 nM	0.038 µg/mL	0.05 µg/mL	0.0163 nM	0.07 µg/mL	0.025 µg/mL	15 pM and 13 pM and 27 pM	149 pM	17 pM	–	–	–	–	–
B3	0.04 µg/mL	–	0.01 nM	0.07 µg/mL	0.08 nM	0.118 nM	–	–	–	–	–	11 pM	–	–	–	–	–	–	–
B4	–	0.157 nM	–	–	–	–	–	–	–	–	–	29 pM	–	–	346000	–	–	–	–
B5	–	–	–	–	–	–	–	–	0.0326 nM	–	–	–	–	–	312000	124000	0.011 nM	0.5 nM	0.2 nM
